# Assay results: the DeepSol protein solubility set
# Test: soluble on expression in E. coli; label from the status in PepcDB or PDB records
row,Sequence,soluble on expression in E. coli
1,GQAQTQVKIISQKSDEINEAITRKIDRGSTLLHTETGYLHSRQNMILTVISNRELSKLNQLVMEIDPTAFMIIGKVNEVHGNGFTLPKKHAVKTEK,not soluble
2,MSLKHRIEYAITNAVFVKADELSYLSFRVSGKVIEVYKDLGDYVKRGEALAKLDPTYYELEKRTLEKKMSALLEKKKALEIKIQKLEKGLHISLSAKKLKVESLKKKREALREKLLQVEEKIKLVKLDWERYKSLFQKGLIPRRKFEEVDTNLKVLLHEREYLEKSIQEINTEIKRAKKGIENARNEFKTIEELKKELSSLEEEIKSLKERIKTAEQKIKDTVLIAPFDGVVAKRFISRGDVVRAGQPAFALVNPESFYVEVLLEETKLKGVKVGNKAYVRLDAYPDILFEGVVEEISPASAATFALVPRDVSAGEFTKVVQRIPVKIKITKGDLSLLRVGMGGEVEIRRTREGHHHHHH,soluble
3,MGCRATQRESVGFADKIRYTERRFISVFGVPLLIQLICQAPQRAQELEQIAARWQLQASDDSPFALVLSEERLELRKLDEPKLGAIYVDWVEGAVAHRRKFGGGKGQSIAKAAGLNKGVTPVVLDATAGLGRDAFVLASLGCRVQMVERHPVVAALLEDGLQRAKQDDEIGAWVSERISLLHASSHDALQQLASDPNFTSPDVVYLDPMYPHPENKKKTALVKKEMRVFQSLVGADNDADALLEPALQLAQKRVVVKRPDYAPWLGNRKPSMAMETKKNRFDVYVIAAMSGE,soluble
4,MSLNQLFCHPETITIKKAVYYDIAPIPLPTPFKDGTGGVRHASFFKGWMKIYDEDGFCGQGPAGPLMTDFFLPRMLNAPGKSNGEWMEYFWWEIRNFGYQSPYIPEMTNLDWLLLDLLANRAGLPLHRFLGADRDWACVYKGGGSVLLSDEALISDLQRFKDEGYKTTKFKIGGSGPDFSQDIRRLEKARQALGDGFGIAVDANQAWDAKTAFAFAKEAAPLGVAWLEEPVHAYDMDALRELRDLLDEAGIAMEIAMGESVRSYHTHVAYAEHGVDHLQPARLYCIAENMRVREYARRHGCRISTGGFTFQNAALGALYSEDELLEYHQPLNEVLVPYFSLVSEMKDGRFYLPDVPGLPVHLDFERLERDGLLRGIQFYYHKEGHHHHHH,soluble
5,YRQSQSRAARLRLLVDTGQELIQLPPEAMRKCVLQRACAFVAMDHGLLLEWGADNGVQTTARHGSKERLSTLETTADPLAIGPQWLERPGTHLPCVLLLPLRGADEGSFGTLVLANSVAISAPDGEDIESLQLLATLLAAHLENNRLLEALVARDRT,soluble
6,MTKKYDLHCHSTASDGVLSPTELVHRAYAQGVNVLALCDHDTIAGIDEAEIAAKEVGIELITGVEISTNWEGRGIHIVGLNFDKTHPKMTALLQSQKALREKRAVEIGDKLEKAGIPNAYDGAKALADGEVTRAHYARYLVQIGKVSNDGQAFKRYLGQGKSAFVKAEWADIPTAIETIHAAGGIAIIAHPLRYNMTGKWVRKLIVDFKAWGGDGMEMADCGQTKDQRQMLARWAKEFDLQGSVGSDFHFPCGWIELGKNLDLVDSVIPVWEKF,not soluble
7,MGSDKIHHHHHHMNPVLKSSKLVIFDLDGTLYEGTDHFDYYANHLKQNVPQSQQLDFWRDYTAMKDGHHPVQIGKGYDVKRDYILTIDPMTISVQSVQTWDGSYVPAEEWETLYSDPVSFDFETIIAVGDGWWYPFVTAKHYGVEDCYASYVATKEYMVTDEFELTPLPGLREGLIELKATKEIVLVTNSDREDVQRLLHELHLHDVFNHIITSAKKPTRTTDIFKEVVHQYEVDMSQVVSVGDNFMNEIAQALTLGMQGIYIHPQRASEVAHDHLTVIRSVVELFKN,not soluble
8,MSLIPIRCHAVSGVALSTVQGETRLLMMKRVKGGFWCHVAGTVEAGETGWQTIVREFREETGIVVHELYNGQYLEQFYEHATNTVCLVPVFVVYCPPTQAVTLNHEHTEYRWSTLAEAKALAGFPGQQALYDHLWHYFVENSPSALMRVAMTEGHHHHHH,not soluble
9,MGSDKIHHHHHHVLNLGHKLLQYEAQKLISFHTPGHKGKAEFFTDLHFPDQDLTELPGLDMLHSPAGVIAQAQARAAAVYQSDASFYLINGATVGNQGMFMALAGTGKRGKDLQLPKVLVERQSHRSVFSALVLSGCEPEYIPSVVHPEFGLPLGLKSIAEVDLGEFLGVHLTYPGYYGTLPDLAMIAAQRDRQAVQVSILVDQAHGSHYLSPLFPKGALAYGADLVLCSTHKTLSALTQAAMLHVQGSRIPLSALKEALELLQSSSPSYLLMASLERAVEHALESRRWELLHEAVQELHHRVGGSLRILNPQDVGTYGIAGLDWTKIMINTQRLGVAAPRCVEHLRKSYGIDPELWDDKNILFLLGIGNTPEEVEILTKGLLSLASLNKDVVASPEEMVFEIPLPPVRLTPRQAYFARKRKIPLAESVGHIVGESISPYPPGIPWIVMGEEMTPEILELLTRHKGRWQGWEDAGQGVWIIEEV,not soluble
10,MLLHLIYGPTCSGKTDMAIQIAQETGWPVVALDRVQCCPQIATGSGRPLESELQSTRRIYLDSRPLTEGILDAESAHRRLIFEVDWRKSEEGLILEGGSISLLNCMAKSPFWRSGFQWHVKRLRLGDSDAFLTRAKQRVAEMFAIREDRPSLLEELAELWNYPAARPILEDIDGYRCAIRFARKHDLAISQLPNIDAGRHVELIEAIANEYLEHALSQERDFPQWPEDGAGQPVCPVTLTRIRGSRSHHHHHH,soluble
11,MSAEVQESSGKRGKGKQKKMTVRVDFTPMVDMNMLLITFFMLCTTLSKPQTMEISMPSNDKDITEQQKSMVKASQAITLLLGADNKLYYYEGEPNYKDYTSLKETSYGASGLRAVLLQKNAAAVNQVRALKQQKLDLKITDDEYKKKVSEIKSGKNTPTVIIKATDDASYMNLIDALDEMQICNIGKYVITDIAEADEFLIKNYDAKGELSQNLADK,not soluble
12,MAHHHHHHMALQENRDSYKVKALSLSEFVQQCSDCHQLCLEKTVRVLDNRSRAPRGWEALFNSVAEERRSEDLDLCESRCRYMQTTCPSQDKVQQYEQALAAASLKLKKSTPPNPSVLQDASRCEHAVEVFSNVLFALAHKPSKVSFPTKDLKTGGNTDAESHAGAPTEAHRKVLEGAKNMDNDVSCRSSKLRHERFGSKAQDVASSTGSSLAPDTAAASPASSGTTPKW,not soluble
13,MGSDKIHHHHHHMNALPKLNQLRNLRAIIQHGNISAAAQMLHQTQSTLTRSIQELEKTLGVTLLDRGMNSTVLTKAGMMFEPRMNLILNELERAVDELRQIEKLSDGKIAFGCSHFPATSIVPDVIKKFQERHNSTRITIIEGQLSELLSSLRMGKLDFFIGVVSSDLMLNEFVEERLTSCSFSVVARKGHPLANSTSLAELQAAKWYIPAASHGYYSDLETVIFPNGVKSCGSVIFGDSSAIARKLVLNEDYLFVGPRPMFLAPHHKDLISIIPIKDKLPEGHYSLISPRNKKLTPAALNLVNEIRFAYFDFIKSHS,not soluble
14,MHKYRLVAKKGEGTFSEVLKAQCIKNGKYVAIKCMKNHFDSLDQVNNLREIQALRRLSPHANIIKLLEVLYDQPTGRLALVFELMDMNIYELIRGRRHYVAEERIKNYMYQLMKSMDHMHRNGIFHRDIKPENILIMDDCLKLADFGSCRGIYSKQPYTEYISTRWYRAPECLLTDGYYNYKMDMWGVGCVFFEIVSLFPLFPGTNELDQITKIHNILGTPPPDLLAKMKKRSAHMDFNFPPKEGSGVAKLIPHVNPECVDLIVKLLMYNPDERLSARQALRHPYFRDLREAEKRQKALLAPDVSNHFTAMEADKARQQQTVSSTGSDHEHPTSAGGDGGAGTGAVGTHDGSAAAAAAAAALPSISGARGHAGPEGGHDNDMG,not soluble
15,TLAFCRFSAPGIYFLEKLFHPVASMLVRSTTFLNKHFAKKNHNISVDELSHALELTDKAEISEENNILEGIIRFGGETVKEVMTSRLDMVDLDVRTPFKEVMQCIIENAYSRIPIYSGSRDNIKGVLYIKDLLPHVNKGDNFRWQSLIRPAYFVPETKMIDDLLRDFQANKIHIAIVVDEFGGTSGLVTMEDIIEEIVGEIHDEYDD,not soluble
16,MAKTYKKIGEETKVIEATEPLTILLMGVDTGNVERTETWVGRSDSMILMTVNPKTKKTTMMSLERDILTRIESGNGQAHEAKLNSAYADGGAELAIETIQKMMNIHIDRYVMVNMRGLQKLVDAVGGITVNNILGFPISISDQEEFNTISIGVGEQHIGGEEALVYARMRYQDPEGDYGRQKRQREVIQKVMEKALSLNSIGHYQEILKALSDNMQTNIDLSAKSIPNLLGYKDSFKTIETQQLQGEGEILQGVSYQIVSRAHMLEMQNILRRSLGQEEVTQLETNAVLFEDLFGRAPVGDEDNLEHHHHHH,soluble
17,AHHHHHHGSSSIEWNEKTFAKFAYLSDPRTKGELVAYVLTKANLKDNKYENTIVIENLKNNARRFIENATMPRISPDGKKIAFMRANEEKKVSEIWVADLETLSSKKILEAKNIRSLEWNEDSRKLLIVGFKRREDEDFIFEDDVPAWFDDLGFFDGEKTTFWIFDTESEEVIEEFEKPRFSSGIWHRDKIVVNVPHREIIPQYFKFWDIYIWEDGKEEKMFEKVSFYAVDSDGERILLYGKPEKKYMSEHNKLYIYDGKEVMGILDEVDRGVGQAKIKDGKVYFTLFEEGSVNLYIWDGEIKPIAKGRHWIMGFDVDEIVVYLKETATRLRELFTWDGEEKQLTDYNDPIFAKLKTFEPVHFRYKSLDLEIDGWYMKPELKEGEKAPVIVFVHGGPKGMYGYYFKYEMQLMAAKGYYIVYVNPRGSNGYSEDFALRVLTRTGLEDFQDILNGIEEFLKLEPQADRERIGITGISYGGYMTNWALTQSDLFKAGISENGISYWLTSYAFSDIGLWFDKEVIGENPLENENFRRLSPLFYAKNVKAPILLIHSLEDYRCPLDQSLMFYHVLKDLGKEAYIAIFKRGAHGHSIRGQPRHRMKRYKLFVEFFERKLKKYEEGFPIEKILKE,not soluble
18,MMLFSNLIKENQKIWNAYLHHDFVKKLEDKSLKQENFLFYLKQDYIYLLNYAKCYARLALNSNTAKELRFAMKFQNYIVEGEMELHRAILSLGINADELDIKDESLVNIAYSRYMLSVGENGDFLDMLVALSACAIGYAKIGAEIINRLKNENLKDHPYKEWILTYGSENFQNEAKEFEDFVNSYTSSVGAQKFQKLSEIFHTVTRLEVAFWEHSLRMELNLLEHHHHHH,soluble
19,MEFAKMCFEKLYGVDTSEAKEMYNSVYDVMKAMLKEYTVIFKGPNTQSSQSNPPSSTAARDIFACELAEDSNVEFERMDRSYKEMVNEIRVTDPKDELDIYLKAEVENPKTLPGMEWDVLSWWRLNSQKYPVLSEIARDVLAMQVSYVASESAFSTSGRLLEPSRSCLTHYMVETLVCLEQWLKSEIKLSENTFLTNTQLLADIELLDKLEKGNFIYVVY,soluble
20,MTMNANIEVRLKSPAHPGGFIKHEIIEPLALSVSNAAEVLGVSRAALSALLNERAHLPPEMALRIEKAFGVSMDTLMRMQNSYDIAQTRKRAEEIKVAPFSGKPIESNSVV,not soluble
21,AHHHHHHGSEYKPIRKVVSGNYAAAYAALHARVQVVAAYPITPQTSIIEKIAEFIANGEADIQYIPVESEHSAMAACIGASATGARTFTATSAQGLALMHEMLHWAAGARLPIVMVDVNRAMAPPWSVWDDQTDSLSQRDTGWMQFYAENNQEVYDGVLMAYKVAETVNVPAMVVESAFILSHTYDVVEMIPQELVDEFLPPRKPLYSLANFDEPIAVGALATPNDYYEFRYKLAKAHEEAKKVIKEVGKEFGERFGRDYSQMIETGYIDDADFVFMGMGSLMGTVKEAVDLLRKEGYKVGYAKVRWFRPFPKEELVEIAESVKGIAVLDRNFSFGQEGILFTESKGALYNSSAHPLMKNYIVGLGGRDVTVKDIKAIADDMKKVIESGKVDKEVVWYHLKR,soluble
